Experimental findings from patent US20200172904A1 (MIT, published 2020) are described below.

For this test, the target named is FMR1 (mouse, UniProt P35922 1-614). As to the kind of experiment: co-IP of Mena from E15.5 mouse brain lysates, western blot. (In general: A western blot detects proteins with antibodies after separation by electrophoresis.)

Experimental: Collected lysates were cleared by centrifugation for 20 minutes 14k rpm at 4° C., and incubated overnight at 4° C. with antibodies on magnetic protein G beads (incubated in PBS for 4 hours at 4° C. After IP, beads were washed three times with lysis buffer containing 0.4% NP40, and boiled in 2× sodium dodecyl sulfate (SDS) sample buffer for loading onto an acrylamide gel either for western blotting or for Mass Spectrometry.
Mass spectrometry was performed after immunoprecipitation (IP) of Mena from lysates of E15.5 mouse brains from Mena-wild type and Mena-deficient animals. […] To verify the specificity of these interactions, co-IP experiments from E15.5 mouse brains was performed using Mena-deficient brain lysates or isotype-specific antibodies as negative controls.

B1: Mouse Mena/ENAH (Protein enabled homolog) (other)
chain: MSEQSICQARAAVMVYDDANKKWVPAGGSTGFSRVHIYHHTGNNTFRVVGRKIQDHQVVINCAIPKGLKYNQATQTFHQWRDARQVYGLNFGSKEDANVFASAMMHALEVLNSQEAAQSKVTATQDSTNLRCIFCGPTLPRQNSQLPAQVQNGPSQEELEIQRRQLQEQQRQKELERERMERERLERERLERERLERERLEQEQLERQRQEREHVERLERERLERLERERQERERERLEQLEREQVEWERERRMSNAAPSSDSSLSSAPLPEYSSCQPPSAPPPSYAKVISAPVSDATPDYAVVTALPPTSTPPTPPLRHAATRFATSLGSAFHPVLPHYATVPRPLNKNSRPSSPVNTPSSQPPAAKSCAWPTSNFSPLPPSPPIMISSPPGKATGPRPVLPVCVSSPVPQMPPSPTAPNGSLDSVTYPVSPPPTSGPAAPPPPPPPPPPPPPPPLPPPPLPPLASLSHCGSQASPPPGTPLASTPSSKPSVLPSPSAGAPASAETPLNPELGDSSASEPGLQAASQPAESPTPQGLVLGPPAPPPPPPLPSGPAYASALPPPPGPPPPPPLPSTGPPPPPPPPPPLPNQAPPPPPPPPAPPLPASGIFSGSTSEDNRPLTGLAAAIAGAKLRKVSRVEDGSFPGGGNTGSVSLASSKADAGRGNGPLPLGGSGLMEEMSALLARRRRIAEKGSTIETEQKEDRNEDAEPITAKAPSTSTPEPTRKPWERTNTMNGSKSPVISRPKSTPSSQPSANGVQTEGLDYDRLKQDILDEMRKELAKLKEELIDAIRQELSKSNTA
notes: Endogenous Mena from E15.5 mouse brain lysates, cultured mouse cortical neurons, N2A cells or MEFs
Regarding B1, the binding result is listed as “no binding”.
